Reference: patent publication US20190153113A1, “CD39 VASCULAR ISOFORM TARGETING AGENTS” (INNATE PHARMA, priority 2015, published 2019)
Positions count from the first letter of the chain named. In names and notes the source's numbering stands. Blank lines part the entries; values can stand above or below the molecule they belong to.

Key:
CD39 = molecular target: T1, CD39 (Homo sapiens, UniProt P49961); test: Inhibition of CD39 enzymatic activity in Ramos cells, AMP production by Maldi TOF mass spectrometry; assay type: cell-based
T1 construct: cells that endogenously express CD39 at their surface, e.g. regulatory T (TReg) cells, B cells, cancer cells, lymphoma cells (e.g. Ramos cells); endogenous in cells; host or cells: Ramos human lymphoma cells
T1 sequence (P49961 1-510): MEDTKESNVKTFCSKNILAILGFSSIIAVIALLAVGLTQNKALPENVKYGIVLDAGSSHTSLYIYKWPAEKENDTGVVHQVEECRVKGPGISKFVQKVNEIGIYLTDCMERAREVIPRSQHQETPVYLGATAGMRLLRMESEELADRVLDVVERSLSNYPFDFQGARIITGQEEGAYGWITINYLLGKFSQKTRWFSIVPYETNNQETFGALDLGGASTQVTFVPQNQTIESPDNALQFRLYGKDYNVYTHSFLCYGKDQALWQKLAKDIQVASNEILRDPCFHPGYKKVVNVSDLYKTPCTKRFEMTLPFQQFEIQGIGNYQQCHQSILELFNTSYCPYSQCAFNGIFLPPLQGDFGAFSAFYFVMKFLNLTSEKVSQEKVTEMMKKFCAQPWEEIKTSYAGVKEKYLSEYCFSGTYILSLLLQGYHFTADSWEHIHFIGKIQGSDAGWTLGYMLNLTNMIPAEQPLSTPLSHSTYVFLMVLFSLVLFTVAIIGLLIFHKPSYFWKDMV
Experimental: The inhibition of CD39 enzymatic activity by antibodies was evaluated by Maldi TOF mass spectrometry (production of AMP). This assay represents an assay that is relatively insensitive to down-modulation of CD39 expression. […] After washes, cells were incubated with anti-CD39 antibodies, isotype control, or ARL and 50 μM ATP for 30 minutes at 4° C. in PBS. AMP generated is quantified in supernatants by Maldi TOP.
The inhibition of CD39 enzymatic activity by antibodies was evaluated by Maldi TOF mass spectrometry (production of AMP). Briefly, 10^5 Ramos human lymphoma cells were incubated overnight at 37° C. with anti-CD39 antibodies or a chemical CD39 inhibitor (ARL 100 μM). After washes, cells were incubated with anti-CD39 antibodies, isotype control, or ARL and 50 μM ATP for 30 minutes at 4° C. in PBS. AMP generated is quantified in supernatants by Maldi TOP. Antibodies were used at 33 nM and ARL at […].

[1] = Stability in reference formulation, thermal shift stability assay (aggregation temperature); assay type: physicochemical; conditions: in words
Experimental: All antibodies were tested for stability in the following reference formulation at a concentration of approximatively 7 mg/mL: pH 6.0; histidine buffer (10 mM); sucrose (200 mM); NaCl (50 mM); Polysorbate 80 (PS80) (0.2 g/L). […] So for this study the concentration is set at 0.2 g/L.
The stability of the formulations was monitored in two storage conditions (at +5° C.±3° C. and at +40±3° C. For each study, 3 times point were performed: TO, T15D (15 days) and T1M (1 month). A freeze thaw (F/T) and a thermal shift stability assay (TSSA) were conducted for the format comparison. To perform F/T cycles, the samples were frozen at least 2 hours at −20° C. and thawed at least 1 hour at room temperature, the F/T cycle is repeated three times and samples are tested 24h after the last Freeze/Thaw cycle. At each time point, the following tests were performed: • Particulate Matter (MFI) • Visual Inspection (Appearance) • Impurities (SE-HPLC) • Turbidity (400 nm) • Protein Concentration (280 nm) (performed with Nanodrop, Thermo Fisher Scientific Inc.)
Aggregation temperature is correlated with the intrinsic stability. The higher the TAgg, the higher the stability of the protein. […]

[2] = molecular target: T2, CD39 mutant 3 (R118A, S119A, Q120K, Q122H, E123A) (human, UniProt P49961 1-510); test: flow cytometry, HEK293T cells transfected with mutant 3
T2 construct: Transfected in HEK293T cells
T2 chain: T1 sequence (P49961 1-510) with R118A, S119A, Q120K, Q122H, E123A

[3] = molecular target: T3, Recombinant human CD39-L4 (NTPDase5, ENTPD5) (human, UniProt O75356 25-428); test: ELISA on coated RechuCD39-L4, OD 450 nm [top panel CHS2-I-391]
T3 construct: Coated in ELISA
T3 sequence: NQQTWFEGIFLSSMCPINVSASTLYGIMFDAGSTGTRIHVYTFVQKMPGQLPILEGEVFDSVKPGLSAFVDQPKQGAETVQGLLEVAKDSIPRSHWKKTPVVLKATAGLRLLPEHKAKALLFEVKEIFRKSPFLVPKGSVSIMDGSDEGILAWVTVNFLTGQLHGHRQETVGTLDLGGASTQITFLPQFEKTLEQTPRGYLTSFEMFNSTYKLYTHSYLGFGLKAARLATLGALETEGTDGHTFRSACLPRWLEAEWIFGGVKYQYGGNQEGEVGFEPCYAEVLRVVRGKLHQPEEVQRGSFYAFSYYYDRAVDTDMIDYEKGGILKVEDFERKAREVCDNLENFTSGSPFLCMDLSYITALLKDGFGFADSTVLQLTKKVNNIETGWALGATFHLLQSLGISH
Experimental: Wells were washed in TBS Tween 20, and further saturated 2H at RT in TBS Blocking buffer. Dose range concentration of primary antibody was incubated in TBS blocking buffer for 2h at RT. Wells were washed in TBS Tween 20. […] Optical density was measured on Enspire at OD=450.

maximum inhibition achieved (CD39; Ramos cells, 50 μM ATP): 93.4%
EC50 (CD39; read-out: EC50 (inhibition of 50% of the enzymatic activity of CD39), 100,000 Ramos cells, 50 μM ATP, n=3): 1.2 nM
B1: I-392: anti-CD39 antibody, VH SEQ ID NO: 8 and VL SEQ ID NO: 9, chimeric human IgG1 with N297Q mutation (antibody, V domains shown)
VH: QIQLVQSGPEVKKPRETVKISCKASGYTFTHYGMNWVKQAPGKGLKWMGWINTYTGEPTYADDFKGRFAFSLEASASTAYLQINNLKNEDTATYFCARRRYEGNYVFYYFDYWGQGTTLTVSS
VL: DIQMTQSPASLSASVGETVTITCRASENIYSYFSWYQQKQGKSPQLLVYTAKTLAEGVPSRFSGSGSGTQFSLKINSLQPEDFGSYYCQHHYVTPYTFGGGTKLEIK
blocking CD39 enzymatic activity (CD39; Ramos cells, Example 6): very potent at blocking CD39 enzymatic activity
stability (aggregation) [1]: relatively low inherent stability

binding result [2]: binds
binding result [3]: no binding (tested: 50 ug/ml)
B2: Antibody I-391, Fc silent recombinant chimeric human IgG1 with heavy chain N297Q mutation (antibody, V domains shown)
VH: QIQLVQSGPELKKPGETVKISCKASGYTFRNYGMNWVKQAPGKGLKWMGWINTYTGEPTYADDFKGRFAFSLATSASTAYLQISNLKNEDTATYFCARKAYYGSNYYFDYWGQGTTLTVSS
VL: DIVMTQSHKFMSTSVGDRVSITCKASQDVSTAVAWYQQKPGQSPKLLIYSASYRYTGVPDRFTGSGSGTDFTFTISTVQAEDLAVYYCQQHYTTPPYTFGGGTKLEIKR
